Measured values taken from the RNAGym collection of RNA variant scans (doi:10.7554/elife.90254).

B1: LINE1-mini (parent)
chain: GGCAGAGCUCAACACAGCGUGGCAAAGUGGCUGUGGCUAGACUGCC

Variants of: B1
Test: self-cleavage, relative activity (ratio to wild type); higher = more cleavage; in vitro, sequencing; the parent is a self-cleaving ribozyme

In order of falling self-cleavage:
1. GGCAGAGCUCAGCACAGCGUGGCAAAGUGGCUGUGGCUAGACUGCA [A12G C46A]  0.31
2. GGCAGAGCUCAGCACAGCAUGGCAAAGUGGCUGUGGCUAGACUGCC [A12G G19A]  0.17
3. GGCAGAGCUCAGCACAGCGUGGCAAAGUGGAUGUGGCUAGACUGCC [A12G C31A]  0.16
4. GGCAGAGCUCAGCACAGCGUGGCAAAGUGGCUGUGGCUACACUGCC [A12G G40C]  0.1
5. GGCAGAGCUCAGCACAGCGUGGCAAAGUGGCUGUGGCUAGACUUCC [A12G G44U]  0.09
6. GGCAGAGCUCAGCACAGCGCGGCAAAGUGGCUGUGGCUAGACUGCC [A12G U20C]  0.08
7. GGCAGAGCUCAGAACAGCGUGGCAAAGUGGCUGUGGCUAGACUGCC [A12G C13A]  0.07
8. GGCAGAGCUCAGUACAGCGUGGCAAAGUGGCUGUGGCUAGACUGCC [A12G C13U]  0.06
9. GGCAGAGCUCAGCACAGCGUGGCAAAGUGGCUGUGGCUAUACUGCC [A12G G40U]  0.06
10. GGCAGAGCUCAGCACAGCGUGGCAAAGUGGCUGUGGCUAAACUGCC [A12G G40A]  0.06
11. GGCAGAGCUCAGCACAGCGUGGGAAAGUGGCUGUGGCUAGACUGCC [A12G C23G]  0.05
12. GGCAGAGCUCAGCACAGCGUGGCAAAGUGGCUGUGGCUAGACUGCG [A12G C46G]  0.05
13. GGCAGAGCUCAGCACAGCGUGGCAAAGUGGUUGUGGCUAGACUGCC [A12G C31U]  0.05
14. GGCAGAGCUCAGCACAGCGUAGCAAAGUGGCUGUGGCUAGACUGCC [A12G G21A]  0.05
15. GGCAGAGCUCAGCACAGCGUGGCAAAGUGGCUGUCGCUAGACUGCC [A12G G35C]  0.05
16. GGCAGAGCUCAGCACAGCGUGGCAAAGUGGCUGUGGCUAGACUGCC [A12G]  0.04
17. GGCAGAGCUCAGCACAGCGUGGCAAAGUGGCUGUGGUUAGACUGCC [A12G C37U]  0.04
18. GGCAGAGCUCAGCACAGCGUGGCAAAGUGGCUGUGGAUAGACUGCC [A12G C37A]  0.04
19. GGCAGAGCUCACCACAGCGUGGCAAAGUGGCUGUGGCCAGACUGCC [A12C U38C]  0.04
20. GGCAGAGCUCAGCACAGCGAGGCAAAGUGGCUGUGGCUAGACUGCC [A12G U20A]  0.04
21. GGCAGAGCUCAGGACAGCGUGGCAAAGUGGCUGUGGCUAGACUGCC [A12G C13G]  0.04
22. GGCAGAGCUCAGCCCAGCGUGGCAAAGUGGCUGUGGCUAGACUGCC [A12G A14C]  0.04
23. GGCAGAGCUCAGCGCAGCGUGGCAAAGUGGCUGUGGCUAGACUGCC [A12G A14G]  0.04
24. GGCAGAGCUCAGCACAGCGUGGCAAAUUGGCUGUGGCUAGACUGCC [A12G G27U]  0.04
25. GGCAGAGCUCAGCACAGCGUGGCAAAGUGGGUGUGGCUAGACUGCC [A12G C31G]  0.04
26. GGCAGAGCUCAGCACAGCGUGGCAAAGUGGCUGUGGCUAGACUACC [A12G G44A]  0.04
27. GGCAGAGCUCAGCACAGCGUGGCAAAGUGGCUGUUGCUAGACUGCC [A12G G35U]  0.04
28. GGCAGAGCUCACCACAGCGUGGCAAAGUGGCUGCGGCUAGACUGCC [A12C U34C]  0.03
29. GGCAGAGCUCACCACAGCGUGGCAAAGUGGCUGUGGCGAGACUGCC [A12C U38G]  0.03
30. GGCAGAGCUCAGCACAGCGUGGUAAAGUGGCUGUGGCUAGACUGCC [A12G C23U]  0.03
31. GGCAGAGCUCAGCACAGCGUGGCAAAGUGGCUGUGGCUAGACUGCU [A12G C46U]  0.03
32. GGCAGAGCUCACCACAGCGUGGCAAAGUGGCUGUGGCUAGACAGCC [A12C U43A]  0.03
33. GGCAGAGCUCAGCUCAGCGUGGCAAAGUGGCUGUGGCUAGACUGCC [A12G A14U]  0.03
34. GGCAGAGCUCAGCAUAGCGUGGCAAAGUGGCUGUGGCUAGACUGCC [A12G C15U]  0.03
35. GGCAGAGCUCAGCAGAGCGUGGCAAAGUGGCUGUGGCUAGACUGCC [A12G C15G]  0.03
36. GGCAGAGCUCAGCACAGCGUGGCAAACUGGCUGUGGCUAGACUGCC [A12G G27C]  0.03
37. GGCAGAGCUCAGCACAGCGUGGCAAAAUGGCUGUGGCUAGACUGCC [A12G G27A]  0.03
38. GGCAGAGCUCAGCACAGCGUUGCAAAGUGGCUGUGGCUAGACUGCC [A12G G21U]  0.03
39. GGCAGAGCUCAGCACAGCGUGGCAAAGUGGCUGUGGCUAGACUCCC [A12G G44C]  0.03
40. GGCAGAGCUCACCACAGCGUGGCAAAGUGGCUGAGGCUAGACUGCC [A12C U34A]  0.02
41. GGCAGAGCUCACCACAGCGUGGCAAAGUGGCUGGGGCUAGACUGCC [A12C U34G]  0.02
42. GGCAGAGCUCAGCACAGCGUGGCAAAGUGGCUGUGGGUAGACUGCC [A12G C37G]  0.02
43. GGCAGAGCUCAGCACAGCGGGGCAAAGUGGCUGUGGCUAGACUGCC [A12G U20G]  0.02
44. GGCAGAGCUCAGCACAGCGUGGAAAAGUGGCUGUGGCUAGACUGCC [A12G C23A]  0.02
45. GGCAGAGCUCACCACAGCGUGGCAAAGAGGCUGUGGCUAGACUGCC [A12C U28A]  0.02
46. GGCAGAGCUCACCACAGCGUGGCAAAGCGGCUGUGGCUAGACUGCC [A12C U28C]  0.02
47. GGCAGAGCUCACCACAGCGUGGCAAAGGGGCUGUGGCUAGACUGCC [A12C U28G]  0.02
48. GGCAGAGCUCAGCACAGCUUGGCAAAGUGGCUGUGGCUAGACUGCC [A12G G19U]  0.02
49. GGCAGAGCUCAGCACAGCCUGGCAAAGUGGCUGUGGCUAGACUGCC [A12G G19C]  0.02
50. GGCAGAGCUCAGCAAAGCGUGGCAAAGUGGCUGUGGCUAGACUGCC [A12G C15A]  0.02
51. GGCAGAGCUCAGCACAGCGUGGCAAAGUGGCUGUAGCUAGACUGCC [A12G G35A]  0.02
52. GGCAGAGCUCACCACAGCGCGGCAAAGUGGCUGUGGCUAGACUGCC [A12C U20C]  0.01
53. GGCAGAGCUCACCACAGCGUGGCAAAGUGGCUGUGGCAAGACUGCC [A12C U38A]  0.01
54. GGCAGAGCUCACCACAGCGUGGCAAAGUGGCUGUGGCUAGACCGCC [A12C U43C]  0.01
55. GGCAGAGCUCACCACAGCGUGGCAAAGUGGCUGUGGCUAGACGGCC [A12C U43G]  0.01
56. GGCAGAGCUCAGCACAGCGUCGCAAAGUGGCUGUGGCUAGACUGCC [A12G G21C]  0.01
